The record followed here is patent US20120178909A1 (MorphoSys, published 2012).

The labels stand for the following.
B1: AbD05446 (Fab, V domains shown)
VH: QVQLVESGGGLVQPGGSLRLSCAASGFTFNSNSMSWVRQAPGKGLEWVSGISGIGSNTNYADSVKGRFTISRDNSKNTLYLQMNSLRAEDTAVYYCARVHYYSGVVFDFWGQGTLVTVSS
VL: DIELTQPPSVSVAPGQTARISCSGDNLRTQYASWYQQKPGQAPVLVIYNKNKRPSGIPERFSGSNSGNTATLTISGTQAEDEADYYCAAWDSGSIVFGGGTKLTVLG
B2: AbD05445 (Fab, V domains shown)
VH: QVQLVESGGGLVQPGGSLRLSCAASGFTFSNNAMTWVRQAPGKGLEWVSLISYSGSSTYYADSVKGRFTISRDNSKNTLYLQMNSLRAEDTAVYYCARLGGNPLGPFDHWGQGTLVTVSS
VL: DIALTQPASVSGAPGQRVTISCTGTSSDIGGYSYVSWYQQHPGKAPKLMIYGVTKRPSGVSNRFSGSKSGNTASLTISGLQAEDEADYYCQSWATHPIRVFGGGTKLTVLG
B3: AbD05321 (Fab, V domains shown)
VH: QVQLVQSGAEVKKPGSSVKVSCKASGGTFSSHAISWVRQAPGQGLEWMGGIIPIFGMANYAQKFQGRVTITADESTSTAYMELSSLRSEDTAVYYCARYYWKPVLFDFDVWGQGTLVTVSS
VL: DIALTQPASVSGSPGQSITISCTGTSSDIGGNNYVSWYQQHPGKAPKVMIYEVSKRPSGVSNRFSGSKSGNTASLTISGLQAEDEADYYCSSYTMTIFVFGGGTKLTVLG
B4: AbD05320 (Fab, V domains shown)
VH: QVQLVQSGAEVKKPGESLKISCKGSGYSFTNYWISWVRQAPGKGLEWMGIIDPGDSDTNYSPSFQGQVTISADKSISTAYLQWSSLKASDTAMYYCARVNYYNFDYWGQGTLVTVSS
VL: DIVLTQSPATLSLSPGERATLSCRASQSVTSNLAWYQQKPGQAPRLLIYGNVSRRATGVPARFSGSGSGTDFTLTISSLEPEDFATYYCQQYGDYPATFGQGTKVEIKR
B5: AbD05322 (Fab, V domains shown)
VH: QVQLVESGGGLVQPGGSLRLSCAASGFTFSNFWMSWVRQAPGKGLEWVSAISYSSSSTYFADSVKGRFTISRDNSKNTLYLQMNSLRAEDTAVYYCARAYRSYFDIWGQGTLVTVSS
VL: DIQMTQSPSSLSASVGDRVTITCRASQSISNWLNWYQQKPGKAPKLLIYNASILQSGVPSRFSGSGSGTDFTLTISSLQPEDFAVYYCQQNYGIPITFGQGTKVEIKR
B6: AbD05444 (Fab, V domains shown)
VH: QVQLVESGGGLVQPGGSLRLSCAASGFTFSSYWLNWVRQAPGKGLEWVSGISSSSSSTFYADGVKGRFTISRDNSKNTLYLQMNSLRAEDTAVYYCARHSYFDYWGQGTLVTVSS
VL: B5 VL with S30V, N31T, W32Y, N50A, I53N, N91L, G93S, I94H, I96P

Numbering of substitutions follows the chain as printed.

The target in the assay is T1, DV2 NS2B-NS3pro construct, wild type (strain 16681) (WNV strain of the DV serotype 2 (DV2; …, UniProt P29990 1393-1440; P29990 1476-1687).
T1 construct: range 1393-1440;range 1476-1687
In words: ELISA on coated construct.
As to B1, the binding result is recorded as “no binding (tested: 2 µg/ml antibody)”.

In the case of B2, the binding result is given as “no binding (tested: 2 µg/ml antibody)”.

B3: the binding result is given as “no binding (tested: 2 µg/ml antibody)”.

As to B4, the binding result was “no binding (tested: 2 µg/ml antibody)”.

For B5, the binding result was “no binding (tested: 2 µg/ml antibody)”.

With B6, the binding result is recorded as “no binding (tested: 2 µg/ml antibody)”.
